Legend:
HLA-A*68:01 = assay: IEDB peptide-MHC binding, purified MHC/competitive/radioactivity; filed as Kd, often an IC50 or EC50 that approximates it; ≥ and ≤ were set here for values at or beyond the usual limits of such assays; settings: source organism: Vaccinia virus WR
HLA-A*31:01 [1] = assay: as above; settings: source organism: Vaccinia virus WR
HLA-A*33:01 = assay: as above; settings: source organism: Vaccinia virus WR
HLA-A*11:01 [2] = assay: IEDB peptide-MHC binding, purified MHC/competitive/fluorescence; ≥ and ≤ were set here for values at or beyond the usual limits of such assays; settings: source organism: Vaccinia virus Copenhagen
HLA-A*03:01 [3] = assay: as above; settings: source organism: Vaccinia virus Copenhagen
HLA-B*15:01 [4] = assay: as above; settings: source organism: Vaccinia virus Copenhagen
HLA-A*02:01 [5] = assay: as above; settings: source organism: Vaccinia virus Copenhagen
HLA-A*01:01 [6] = assay: as above
HLA-B*07:02 [7] = assay: IEDB peptide-MHC binding, purified MHC/direct/fluorescence; filed as Kd, often an IC50 or EC50 that approximates it; ≥ and ≤ were set here for values at or beyond the usual limits of such assays
HLA-C*14:02 = assay: as above; settings: source organism: Vibrio antiquarius
HLA-B*15:01 [8] = assay: as above
HLA-B*51:01 = assay: as above; settings: source organism: Vibrio parahaemolyticus
HLA-A*30:01 = assay: IEDB peptide-MHC binding, purified MHC/competitive/radioactivity; filed as Kd, often an IC50 or EC50 that approximates it; ≥ and ≤ were set here for values at or beyond the usual limits of such assays; settings: source organism: Vaccinia virus WR
HLA-B*15:17 = assay: IEDB peptide-MHC binding, purified MHC/competitive/fluorescence; filed as Kd, often an IC50 or EC50 that approximates it; ≥ and ≤ were set here for values at or beyond the usual limits of such assays
HLA-A*26:03 = assay: as above
HLA-B*15:01 [9] = assay: as above; settings: source organism: Vaccinia virus Tian Tan
HLA-A*26:01 [10] = assay: as above; settings: source organism: Vaccinia virus Tian Tan
HLA-B*18:01 [11] = assay: as above; settings: source organism: Vaccinia virus Tian Tan
HLA-A*02:06 = assay: as above; settings: source organism: Vaccinia virus Tian Tan
HLA-B*35:01 = assay: as above; settings: source organism: Vaccinia virus Tian Tan
HLA-A*68:02 = assay: as above
HLA-A*11:01 [12] = assay: IEDB peptide-MHC binding, purified MHC/direct/fluorescence; filed as Kd, often an IC50 or EC50 that approximates it; ≥ and ≤ were set here for values at or beyond the usual limits of such assays
HLA-A*03:01 [13] = assay: as above
HLA-B*27:05 [14] = assay: as above; settings: source organism: Camelpox virus CMS
HLA-B*08:01 = assay: as above; settings: source organism: Variola virus
HLA-A*69:01 = assay: as above
HLA-B*58:01 = assay: as above
HLA-C*12:03 = assay: as above; settings: source organism: Vaccinia virus Tian Tan
HLA-B*48:01 = assay: as above
HLA-A*02:01 [15] = assay: as above; settings: source organism: Camelpox virus CMS
HLA-A*01:01 [16] = assay: as above
HLA-A*31:01 [17] = assay: as above; settings: source organism: Camelpox virus CMS
HLA-B*40:01 = assay: as above
HLA-B*08:03 = assay: as above; settings: source organism: Variola virus
HLA-B*46:01 [18] = assay: IEDB peptide-MHC binding, purified MHC/competitive/fluorescence; filed as Kd, often an IC50 or EC50 that approximates it; ≥ and ≤ were set here for values at or beyond the usual limits of such assays; settings: source organism: Bacillus anthracis str. A0488
HLA-C*15:02 = assay: IEDB peptide-MHC binding, purified MHC/direct/fluorescence; filed as Kd, often an IC50 or EC50 that approximates it; ≥ and ≤ were set here for values at or beyond the usual limits of such assays
HLA-A*24:02 = assay: IEDB peptide-MHC binding, purified MHC/competitive/fluorescence; ≥ and ≤ were set here for values at or beyond the usual limits of such assays; settings: source organism: Vaccinia virus Copenhagen
HLA-B*27:05 [19] = assay: IEDB peptide-MHC binding, purified MHC/competitive/fluorescence; filed as Kd, often an IC50 or EC50 that approximates it; ≥ and ≤ were set here for values at or beyond the usual limits of such assays; settings: source organism: Vaccinia virus Copenhagen
HLA-A*02:01 [20] = assay: as above; settings: source organism: Vaccinia virus Copenhagen
HLA-A*31:01 [21] = assay: as above; settings: source organism: Vaccinia virus Copenhagen
HLA-B*57:01 = assay: IEDB peptide-MHC binding, purified MHC/direct/fluorescence; filed as Kd, often an IC50 or EC50 that approximates it; ≥ and ≤ were set here for values at or beyond the usual limits of such assays; settings: source organism: Camelpox virus M-96
HLA-B*46:01 [22] = assay: as above; settings: source organism: Camelpox virus M-96
HLA-A*26:01 [23] = assay: as above; settings: source organism: Variola virus
HLA-B*18:01 [24] = assay: as above; settings: source organism: Camelpox virus M-96
HLA-A*26:02 = assay: as above; settings: source organism: Variola virus
HLA-B*07:02 [25] = assay: IEDB peptide-MHC binding, purified MHC/competitive/fluorescence; filed as Kd, often an IC50 or EC50 that approximates it; ≥ and ≤ were set here for values at or beyond the usual limits of such assays; settings: source organism: Influenza A virus (A/chicken/Scotland/1959(H5N1))
[26] = source organism: Vaccinia virus Copenhagen
[27] = source organism: Vaccinia virus Tian Tan
[28] = source organism: Camelpox virus CMS
[29] = source organism: Camelpox virus M-96

KLNGAMVEY
Kd (HLA-A*68:01): 5.97 nM | Kd (HLA-A*31:01 [1]): 1180 nM | Kd (HLA-A*33:01): 1960 nM | IC50 (HLA-A*11:01 [2]): 7970 nM | IC50 (HLA-A*03:01 [3]): 11600 nM | IC50 (HLA-B*15:01 [4]): 12200 nM | IC50 (HLA-A*02:01 [5]): ≥ 95400 nM | IC50 (HLA-A*01:01 [6]; [26]): ≥ 192000 nM

KVAQAAAAM
Kd (HLA-B*07:02 [7]; source organism: Vibrio parahaemolyticus): 34 nM | Kd (HLA-C*14:02): 72 nM | Kd (HLA-B*15:01 [8]; source organism: Vibrio parahaemolyticus AQ3810): 29 nM | Kd (HLA-B*51:01): ≥ 20000 nM

KVFFGPIYY
Kd (HLA-A*30:01): 154 nM | Kd (HLA-B*15:17; [27]): 21.6 nM | Kd (HLA-A*26:03; [27]): ≥ 20000 nM | Kd (HLA-B*15:01 [9]): 423 nM | Kd (HLA-A*26:01 [10]): 3000 nM | Kd (HLA-B*18:01 [11]): ≥ 20000 nM | Kd (HLA-A*02:06): 1800 nM | Kd (HLA-B*35:01): 333 nM | Kd (HLA-A*68:02; [27]): ≥ 20000 nM | Kd (HLA-A*11:01 [12]; [28]): 22 nM | Kd (HLA-A*03:01 [13]; [28]): 29 nM | Kd (HLA-B*27:05 [14]): ≥ 20000 nM | Kd (HLA-B*08:01): ≥ 20000 nM | Kd (HLA-B*07:02 [7]; [28]): ≥ 20000 nM | Kd (HLA-A*69:01; [28]): ≥ 20000 nM | Kd (HLA-B*58:01; [28]): 21 nM | Kd (HLA-C*12:03): 45 nM | Kd (HLA-B*48:01; [28]): ≥ 20000 nM | Kd (HLA-A*02:01 [15]): ≥ 20000 nM | Kd (HLA-A*01:01 [16]; [28]): ≥ 20000 nM | Kd (HLA-A*31:01 [17]): 1290 nM | Kd (HLA-B*40:01; [28]): ≥ 20000 nM | Kd (HLA-B*08:03): ≥ 20000 nM

LMAFSTGPF
Kd (HLA-B*46:01 [18]): 2760 nM | Kd (HLA-C*15:02; source organism: Bacillus anthracis str. A0488): ≥ 20000 nM

LQIPFAMQM
Kd (HLA-C*15:02; source organism: SARS-CoV1): 110 nM | Kd (HLA-B*15:01 [8]; source organism: SARS-CoV1): 180 nM | Kd (HLA-B*58:01; source organism: SARS-CoV1): 986 nM | Kd (HLA-B*40:01; source organism: SARS-CoV1): 4040 nM

LYQLLEAVY
IC50 (HLA-A*24:02): 68.7 nM | IC50 (HLA-B*15:01 [4]): ≥ 71900 nM | IC50 (HLA-A*02:01 [5]): ≥ 72800 nM | IC50 (HLA-A*01:01 [6]; [26]): ≥ 199000 nM

SLYKYLLLR
Kd (HLA-B*27:05 [19]): 2460 nM | Kd (HLA-B*15:17; [26]): ≥ 20000 nM | Kd (HLA-A*26:03; [26]): ≥ 20000 nM | Kd (HLA-A*02:01 [20]): 555 nM | Kd (HLA-A*31:01 [21]): 1.17 nM | Kd (HLA-A*68:02; [26]): 3900 nM | Kd (HLA-A*11:01 [12]; [29]): 47 nM | Kd (HLA-A*03:01 [13]; [29]): 31 nM | Kd (HLA-B*57:01): ≥ 20000 nM | Kd (HLA-B*08:01): ≥ 20000 nM | Kd (HLA-B*07:02 [7]; [29]): ≥ 20000 nM | Kd (HLA-A*69:01; [29]): ≥ 20000 nM | Kd (HLA-B*15:01 [8]; [29]): ≥ 20000 nM | Kd (HLA-B*58:01; [29]): ≥ 20000 nM | Kd (HLA-B*46:01 [22]): ≥ 20000 nM | Kd (HLA-A*26:01 [23]): ≥ 20000 nM | Kd (HLA-B*18:01 [24]): ≥ 20000 nM | Kd (HLA-B*48:01; [29]): ≥ 20000 nM | Kd (HLA-A*01:01 [16]; [29]): ≥ 20000 nM | Kd (HLA-B*40:01; [29]): ≥ 20000 nM | Kd (HLA-B*08:03): ≥ 20000 nM | Kd (HLA-A*26:02): ≥ 20000 nM

SPYRTLMSCPI
Kd (HLA-B*07:02 [25]): 3.6 nM

VVDPDDGSY
IC50 (HLA-A*01:01 [6]; source organism: Zaire ebolavirus): 44100 nM

Source: the Immune Epitope Database (IEDB)
